Numbered stars: 1 amine (or outer) side, 2 acyl side, 3 side chain; on linkers, the order of the positions; unused ones are H or OH. Square brackets hold non-standard residues; d marks the D form. Peptide text beside a SMILES is read from it. * marks the point of attachment. X1 = CCCC[C@@H](C(=O)[*:2])n1cc([C@H](Cc2c[nH]c3ccccc23)N[*:1])nn1; X4 = C[C@H](N[*:1])c1cn([C@@H](Cc2ccc(O)cc2)C(=O)[*:2])nn1; DOTA = O=C(O)CN1CCN(CC(=O)O)CCN(CC(=O)*)CCN(CC(=O)O)CC1; X3 = O=C([C@H](Cc1c[nH]c2ccccc12)n1cc(CN[*:1])nn1)[*:2]; X2 = O=C(Cn1cc([C@H](Cc2ccc(O)cc2)N[*:1])nn1)[*:2]; Nle = CCCC[C@H](N)C(=O)O
What was measured:
[1] = Fig. 4
Experimental: (§1) Table printed on a drawing sheet, Fig. 4
(§2) Footnotes: Significant improvement / Significant drawback
First reader's note: Light grey shading of a cell marks a significant improvement and dark grey shading a significant drawback; logD was measured at pH 7.4.

[2] = Blood plasma stability; type: in vitro ADME; conditions: human blood plasma, 37° C.; for at least more than 2 hours; FIG. 3
Experimental: The ^177Lu-labelled compounds were diluted with 0.9% NaCl to a concentration of 3.75 μM and incubated (375 pmol, 100 μL, 7.5-12 MBq) in nitrogen-flushed fresh human blood plasma (1.5 mL) at 37° C. At different time points (0.5, 1, 2, 4, 6 and 24 h) aliquots (75 μL) were taken and the proteins were precipitated in CH3CN (100 μL) and centrifuged (2 min, 14680 rpm, rt). The supernatant (75 μL) was diluted with water (75 μL) and analyzed by γ-HPLC.

[3] = target: CCK2R (Homo sapiens, UniProt P32239); assay: IC50 (nM); parameters: Human Medullary Thyroid Cancer cells (MZ-CRCl) expressing the CCK2R; endogenous in cells; host or cells: MZ-CRC1 human medullary thyroid cancer cells
Experimental: as §1
Head of the field: IC50 (nM)
as §2
First copying reader's note: Light grey shading of a cell marks a significant improvement and dark grey shading a significant drawback; logD was measured at pH 7.4.
Where the first naming reader finds the target: patent_title: MINIGASTRIN DERIVATES, IN […] FOR USE IN CCK2 RECEPTOR POSITIVE TUMOUR DIAGNOSIS AND/OR TREATMENT

[4] = test system: CCK-2 receptor positive tumours; conditions: in vivo; cited from earlier work

CCK2R, sequence (P32239 whole entry, looked up): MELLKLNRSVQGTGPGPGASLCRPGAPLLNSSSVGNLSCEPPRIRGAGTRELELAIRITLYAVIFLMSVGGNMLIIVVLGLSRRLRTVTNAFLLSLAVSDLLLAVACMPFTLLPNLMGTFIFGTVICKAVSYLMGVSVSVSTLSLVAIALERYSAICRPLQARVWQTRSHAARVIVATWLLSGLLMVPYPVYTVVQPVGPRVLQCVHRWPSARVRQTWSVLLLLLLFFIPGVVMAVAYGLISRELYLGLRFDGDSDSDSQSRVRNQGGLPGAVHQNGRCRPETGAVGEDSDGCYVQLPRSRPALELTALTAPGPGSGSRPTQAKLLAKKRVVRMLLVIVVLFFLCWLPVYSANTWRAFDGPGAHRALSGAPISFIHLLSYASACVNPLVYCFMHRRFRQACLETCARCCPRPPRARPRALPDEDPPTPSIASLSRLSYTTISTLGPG

CCCC[C@H](NC(=O)[C@H](Cc1c[nH]c2ccccc12)NC(=O)CNC(=O)[C@H](Cc1ccc(O)cc1)n1cc([C@H](C)NC(=O)[C@@H](CCC(=O)O)NC(=O)CN2CCN(CC(=O)O)CCN(CC(=O)O)CCN(CC(=O)O)CC2)nn1)C(=O)N[C@@H](CC(=O)O)C(=O)N[C@@H](Cc1ccccc1)C(N)=O [DOTA[Nle15, Ala11-(Tz)-Tyr12]-MG11] ({DOTA}-[dE][X4]GW[Nle]DF-NH2)
Plasma half live [1]: 16.7 h

CCCC[C@H](NC(=O)[C@H](Cc1c[nH]c2ccccc12)n1cc(CNC(=O)[C@H](Cc2ccc(O)cc2)NC(=O)[C@H](C)NC(=O)[C@@H](CCC(=O)O)NC(=O)CN2CCN(CC(=O)O)CCN(CC(=O)O)CCN(CC(=O)O)CC2)nn1)C(=O)N[C@@H](CC(=O)O)C(=O)N[C@@H](Cc1ccccc1)C(N)=O [DOTA[Nle15, Gly13-(Tz)-Trp14]-MG11] ({DOTA}-[dE]AY[X3][Nle]DF-NH2)
Plasma half live [1]: 4.3 h

CCCC[C@@H](C(=O)N[C@@H](CC(=O)O)C(=O)N[C@@H](Cc1ccccc1)C(N)=O)n1cc([C@H](Cc2c[nH]c3ccccc23)NC(=O)CNC(=O)[C@H](Cc2ccc(O)cc2)NC(=O)[C@H](C)NC(=O)[C@@H](CCC(=O)O)NC(=O)CN2CCN(CC(=O)O)CCN(CC(=O)O)CCN(CC(=O)O)CC2)nn1 [DOTA[Nle15, Trp14-(Tz)-Nle15]-MG11] ({DOTA}-[dE]AYG[X1]DF-NH2)
Plasma half live [1]: >24 h

CCCC[C@H](NC(=O)[C@H](Cc1c[nH]c2ccccc12)NC(=O)Cn1cc([C@H](Cc2ccc(O)cc2)NC(=O)[C@H](C)NC(=O)[C@@H](CCC(=O)O)NC(=O)CN2CCN(CC(=O)O)CCN(CC(=O)O)CCN(CC(=O)O)CC2)nn1)C(=O)N[C@@H](CC(=O)O)C(=O)N[C@@H](Cc1ccccc1)C(N)=O [DOTA[Nle15, Tyr^12-(Tz)-Gly^13]-MG11, DOTA[Nle15, Tyr12-ψ[Tz]-Gly13]-MG11] ({DOTA}-[dE]A[X2]W[Nle]DF-NH2)
peptides remaining stable in plasma [2]: more than 60%

CCCC[C@H](NC(=O)[C@H](Cc1c[nH]c2ccccc12)NC(=O)CNC(=O)[C@H](Cc1ccc(O)cc1)NC(=O)[C@H](C)NC(=O)[C@@H](CCC(=O)O)NC(=O)CN1CCN(CC(=O)O)CCN(CC(=O)O)CCN(CC(=O)O)CC1)C(=O)N[C@@H](CC(=O)O)C(=O)N[C@@H](Cc1ccccc1)C(N)=O [DOTA[Nle15]-MG11, DOTA-DGlu-Ala-Tyr-Gly-Trp-Nle-Asp-Phe-NH2] ({DOTA}-[dE]AYGW[Nle]DF-NH2)
IC50 [3]: 16.1 nM

DOTA-DGlu-DGlu-DGlu-DGlu-DGlu-DGlu-Ala-Tyr-Gly-Trp-Nle-Asp-Phe-NH2 [PP-F11N]
tumour-kidney-ratio [4]: excellent

— patent publication US20210361735A1, “MINIGASTRIN DERIVATES, IN PARTICULAR FOR USE IN CCK2 RECEPTOR POSITIVE TUMOUR DIAGNOSIS AND/OR TREATMENT” (PAUL SCHERRER INSTITUT, priority 2017, published 2021)
